From patent publication US20200207869A1 come the findings set out here.

The target of experiment [1] is VWF in the plasma of the mice (endogenous murine VWF) (murine) (UniProt Q8CIZ8). Briefly: sandwich ELISA of mouse plasma, anti-VWF capture, anti-FVIII detection. A general note: In an ELISA, binding on a coated surface is turned into a signal by an enzyme label.
The target in experiment [2] is purified recombinant human VWF (human) (UniProt P04275). Briefly: BLI (Octet-QK), rhVWF immobilized, FVIII 3.5 nM, single exponential decay.
The target is the same in experiment [3]. Briefly: BLI (Octet-QK), rhVWF immobilized, FVIII 1.4 nM, single exponential decay. (In general: In BLI a coated tip is dipped into the sample, and binding shifts an interference pattern.)
In experiment [4] the target is VWF in the plasma of the mice (endogenous murine VWF) (murine) (UniProt Q8CIZ8). Briefly: sandwich ELISA of mouse plasma, anti-VWF capture, anti-FVIII detection; reference arbitrarily set as 100%.

In the case of “B-domainless FVIII containing a Tyr to Phe replacement at position 1680 (FVIII-SQ/p.Y1680F) (from UniProt P00451 20-2351)”, the VWF-FVIII complex relative to WT-FVIII-SQ in experiment [1] was determined as 8%.

The term koff denotes the rate constant with which the complex falls apart. As for “purified recombinant full-length factor VIII (Kogenate), P00451 20-2351”, the values for the dissociation rate constant (koff) in experiment [2] and in experiment [3] were 0.0022 s⁻¹ and 0.003 s⁻¹, respectively.

Turning to “wild-type B-domainless FVIII (WT-FVIII-SQ) (from UniProt P00451 20-2351)”, the VWF-FVIII complex relative to WT-FVIII-SQ in experiment [4] came out at 100%.
